Numbered stars: 1 amine (or outer) side, 2 acyl side, 3 side chain; on linkers, the order of the positions; unused ones are H or OH. * marks the point of attachment. DABCYL = CN(C)c1ccc(/N=N/c2ccc(C(=O)*)cc2)cc1; EDANS = O=S(=O)(O)c1cccc2c(NCCN*)cccc12; AMC = Cc1cc(=O)oc2cc(N*)ccc12; Suc = O=C(CCC(=O)[*:2])[*:1]
How the values were obtained:
ADAMTS13/FXI complexes = target: T1, ADAMTS13/FXI complexes (Homo sapiens, UniProt P03951+Q76LX8); test: Formation of ADAMTS13/FXI complexes in FXI-deficient plasma after addition of FXI (ELISA); format: binding; details: FXI-deficient plasma diluted 1:8 in ECD, 30 minutes, FIG. 25
T1 construct: addition of FXI (Enzyme Research Lab, Canada) to FXI-deficient plasma diluted 1:8 in ECD; purchased Enzyme Research Lab, Canada; host or cells: FXI purchased; ADAMTS13 endogenous in plasma from patients with congenital FXI deficiency
Experimental: An assay was developed for measuring the presence of ADAMTS13/FXI complexes by ELISA analysis. A standard curve was generated using PNP (Saturn Biomedical), diluted 1:4 in ECD buffer (PBS/3% BSA/gentamicin), and then serially diluted 1:2 in ECD buffer. Assays were performed in duplicate, using 100 μl of each standard dilution in Immulon 4 HBX 96-well microtiter plates (ThermoLabsystems, Franklin, Mass.) that were coated with goat anti-human ADAMTS13 antibody raised against a synthetic peptide sequence in the CUB1 domain (SC21510; Santa Cruz Biotechnology, Santa Cruz, Calif.) at a concentration of 1 μg/ml in 3-(N-morpholino)propanesulfonate (MOPS) coating buffer (0.1 M MOPS, 0.15 M NaCl, 0.05 M CaCl2, 0.066 M Trehalose, 0.02% NaN3, pH 7.4). Microtiter plates were blocked with SuperBlock (Pierce Chemical Co., Indianapolis, Ind.).
Standards and diluted samples were incubated in coated microwells for 2 hours at room temperature, with mixing. […] The optical density of the mixture was then read in a spectrophotometer at 450 nm.
Formation of ADAMTS13/FXI complexes was measured after addition of FXI (Enzyme Research Lab, Canada) to FXI-deficient plasma diluted 1:8 in ECD. […] The plasma containing newly formed ADAMTS13/FXI complexes were then added to anti-ADAMTS13 antibody-coated microwells and quantified, as described in Example 16.

ADAMTS13 = ADAMTS13 activity in PRP using peptidyl substrates; format: biochemical, human; details: 0.8 mM substrate, 37° C., FIG. 3
Experimental: (§1) Blood was collected by venopuncture into collection tubes containing 0.12 M sodium citrate, an anti-coagulant. The citrated blood was centrifuged at 700 rpm for 10 minutes. The supernatant was removed and saved as the platelet rich plasma (PRP) fraction. The PRP was centrifuged at 10,000 rpm for 20 minutes. The supernatant was removed and saved as the platelet poor plasma (PPP) fraction. The pellet contained the platelets, which were washed by resuspending in 10 mM Tris-HCl pH 8.0 buffer and centrifuging at 10,000 rpm for 10 minutes. The isolated platelets were resuspended in buffer and used in experiments.
As discussed above, Furlan et al. reported that some peptidyl-pNA moieties, such as XLY-pNA and XVY-pNA, were not substrates for ADAMTS13. We prepared LVY-pNA and tested it for its ability to be cleaved by ADAMTS13. The results shown in FIG. 2 confirm the findings of Furlan et al., i.e., LVY-pNA was not cleaved by ADAMTS13.
In order to determine the effect of modifying the length of the peptide sequence conjugated to the AMC fluorochrome, normal PRP (20 μl) was incubated at 37° C. with a final concentration of 0.8 mM Suc-LLVY-AMC or LVY-AMC in 10 mM Tris-HCl pH 8.0 buffer in total volume of 200 μl. Fluorescence was measured using a microtiter fluorophotometric plate reader (Ex 360 nm/Em 460 nm).

[1] = target: T2, recombinant ADAMTS13 (recADAMTS13) (Homo sapiens, UniProt Q76LX8); test: Recombinant ADAMTS13 activity in tissue culture supernatants using fluorescent substrate; format: biochemical; details: 0.8 mM substrate, 50 mM Tris-HCl pH 8.0, FIG. 5
T2 construct: made in house; host or cells: HEK 293 cells; crude culture supernatant supplied by Dr. David Ginsburg, University of Michigan
T2 sequence (Q76LX8 75-1427): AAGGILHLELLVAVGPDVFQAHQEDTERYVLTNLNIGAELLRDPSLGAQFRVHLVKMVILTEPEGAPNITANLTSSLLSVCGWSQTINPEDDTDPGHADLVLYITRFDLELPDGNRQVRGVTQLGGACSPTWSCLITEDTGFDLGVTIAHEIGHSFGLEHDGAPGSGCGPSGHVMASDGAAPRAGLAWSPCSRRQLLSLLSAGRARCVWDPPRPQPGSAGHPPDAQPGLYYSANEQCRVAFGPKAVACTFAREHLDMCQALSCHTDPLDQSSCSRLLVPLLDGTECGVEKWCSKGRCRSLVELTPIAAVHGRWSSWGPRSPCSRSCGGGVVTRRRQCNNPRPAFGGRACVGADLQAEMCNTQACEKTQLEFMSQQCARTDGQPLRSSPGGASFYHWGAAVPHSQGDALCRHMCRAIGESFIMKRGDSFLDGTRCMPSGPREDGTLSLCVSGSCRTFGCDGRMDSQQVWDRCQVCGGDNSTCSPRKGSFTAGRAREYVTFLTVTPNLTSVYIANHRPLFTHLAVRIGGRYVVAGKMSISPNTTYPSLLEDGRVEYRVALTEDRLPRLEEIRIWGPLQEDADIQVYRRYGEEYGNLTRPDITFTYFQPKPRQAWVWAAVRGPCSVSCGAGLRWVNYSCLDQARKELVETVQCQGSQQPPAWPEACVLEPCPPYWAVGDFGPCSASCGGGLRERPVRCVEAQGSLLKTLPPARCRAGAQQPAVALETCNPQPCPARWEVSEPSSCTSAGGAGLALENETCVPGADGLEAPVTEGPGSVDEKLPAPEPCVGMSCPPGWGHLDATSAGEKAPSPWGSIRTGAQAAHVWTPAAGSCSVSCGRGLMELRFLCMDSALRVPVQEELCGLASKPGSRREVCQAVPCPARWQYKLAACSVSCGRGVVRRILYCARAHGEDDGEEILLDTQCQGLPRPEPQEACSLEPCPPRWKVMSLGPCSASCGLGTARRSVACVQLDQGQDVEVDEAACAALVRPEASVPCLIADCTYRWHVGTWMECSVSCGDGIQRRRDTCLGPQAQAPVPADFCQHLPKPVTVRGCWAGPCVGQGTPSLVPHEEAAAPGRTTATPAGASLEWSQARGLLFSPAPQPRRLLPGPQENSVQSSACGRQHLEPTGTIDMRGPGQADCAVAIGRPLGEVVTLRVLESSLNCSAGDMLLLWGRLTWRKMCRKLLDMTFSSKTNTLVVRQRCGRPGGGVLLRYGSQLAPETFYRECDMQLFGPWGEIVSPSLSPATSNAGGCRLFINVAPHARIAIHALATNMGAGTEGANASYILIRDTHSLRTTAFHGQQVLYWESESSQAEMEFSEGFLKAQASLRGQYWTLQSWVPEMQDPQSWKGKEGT
Source text: HEK 293 cells were transfected with a vector encoding ADAMTS13. Cell culture supernatant from the transfected HEK 293 cells, containing recombinant ADAMTS13, was generously provided by Dr. David Ginsburg (University of Michigan, Mich.). Mock transfected cell supernatant with no recombinant ADAMTS13 was also provided as a control.
Fluorescence signals were compared between tissue culture supernatant from HEK 293 cells transfected with a viral vector coding for recombinant ADAMTS13 (“recADAMTS13”) and supernatant from mock transfected HEK 293 cells, as a control. (Culture supernatants were supplied by Dr. David Ginsburg, University of Michigan.) Varying amounts of the two culture supernatants were added to 0.8 mM Suc-Leu-Leu-Val-Tyr-AMC (SEQ ID NO: 2) fluorescent substrate in 50 mM Tris-HCl pH 8.0 in a total volume of 100 μl.

[2] = tested on: form of ADAMTS13 found on platelets; test: ADAMTS13 activity on isolated platelets using a FRET substrate; format: biochemical, human; details: 8 μg/ml substrate, 37° C., Ex 360 nm/Em 440 nm, FIG. 4
Experimental: as §1
ADAMTS13 activity was measured using a fluorescent substrate attached to a donor moiety and an acceptor moiety that functions by fluorescence resonance energy transfer (FRET). The ADAMTS13 selective substrate, NH2-Arg-Lys(DABCYL)-NLVYMVTGD(EDANS)-Arg-COOH, was used in this example. […] The intact peptidyl substrate has low fluorescence, due to quenching of the […]. Cleavage of the substrate between the tyrosine and methionine of the peptide sequence results in an increase in fluorescence.
Isolated platelets in 10 mM Tris-HCl pH 8.0 assay buffer were incubated with a final concentration of 8 μg/ml of the FRET substrate at 37° C. The fluorescence was measured in a spectrofluorometric plate reader (Ex 360 nm/Em 440 nm). […]

human FXI = human FXI (Homo sapiens, UniProt P03951); test: Binding of recombinant ADAMTS13 to FXI-coated plates (ELISA); details: FXI coated at 1 μg/ml, 1 hour, detection anti-ADAMTS13 TSP5-7 rabbit polyclonal, OD 450 nm, FIG. 22
Experimental: Binding of recADAMTS13 to immobilized FXI was measured using microplates coated with human FXI at a concentration of 1 μg/ml. RecADAMTS13 in solution was added to the FXI-coated microwells and incubated for 1 hour. ADAMTS13/FXI complexes were measured using ELISA. Specifically, after incubation with recADAMTS13, plates were washed with PBS +1% Tween, followed by incubation for 1 hour with anti-ADAMTS13 TSP5-7 rabbit polyclonal antibodies (1 μg/ml). Plates were washed again in PBS+1% Tween, followed by addition of a murine anti-rabbit IgG antibody conjugated to HRP. The detection antibody was incubated for an hour at room temperature. After washing the excess detection antibody from the plates, the TMB substrate was added, incubated for 10 minutes, after which 0.5 M sulfuric acid was added to terminate the reaction. The optical density of the mixture was measured at 450 nm on a spectrophotometer (FIG. 22).

Q: For “FXI: Factor XI zymogen (Enzyme Research Lab, Canada)”, which “ADAMTS13/FXI complexes formed upon addition of FXI” value (ADAMTS13/FXI complexes) is on record?
A: increasing amounts of ADAMTS13/FXI complexes were formed

Q: Which “cleavage of peptidyl-AMC substrate by ADAMTS13 in PRP” value (ADAMTS13; normal PRP 20 μl, 10 mM Tris-HCl pH 8.0, Ex 360 nm/Em 460 nm) does the source give for “Suc-Leu-Leu-Val-Tyr-AMC (Suc-LLVY-{AMC}; SMILES Cc1cc(=O)oc2cc(NC(=O)[C@H](Cc3ccc(O)cc3)NC(=O)[C@@H](NC(=O)[C@H](CC(C)C)NC(=O)[C@H](CC(C)C)NC(=O)CCC(=O)O)C(C)C)ccc12) [Suc-LLVY-AMC, fluorogenic peptidyl substrate from Bachem Bioscience Inc]” here?
A: cleaved

Q: And the “fluorescence signal over time as compared to the LVY-AMC substrate” value (ADAMTS13; normal PRP)?
A: higher signal over time

Q: And the “cleavage of fluorescent substrate by recADAMTS13 in supernatant of transfected HEK 293 cells versus mock” value [1]?
A: cleavage of the substrate by recADAMTS13

Q: How did the “fluorescence on incubation of platelets with FRET substrate (cleavage by platelet ADAMTS13)” value [2] turn out when “NH2-Arg-Lys-(DABCYL)-Asn-Leu-Val-Tyr-Met-Val-Thr-Gly-Asp-(EDANS)-Arg-COOH (H-RK(DABCYL)NLVYMVTGD(EDANS)R-OH; SMILES CSCC[C@H](NC(=O)[C@H](Cc1ccc(O)cc1)NC(=O)[C@@H](NC(=O)[C@H](CC(C)C)NC(=O)[C@H](CC(N)=O)NC(=O)[C@H](CCCCNC(=O)c1ccc(/N=N/c2ccc(N(C)C)cc2)cc1)NC(=O)[C@@H](N)CCCNC(=N)N)C(C)C)C(=O)N[C@H](C(=O)N[C@H](C(=O)NCC(=O)N[C@@H](CC(=O)NCCNc1cccc2c(S(=O)(=O)O)cccc12)C(=O)N[C@@H](CCCNC(=N)N)C(=O)O)[C@@H](C)O)C(C)C) [FRET substrate made for American Diagnostica Inc]” was run?
A: increased fluorescence over time

Q: How did the “complex formation with immobilized FXI” value (human FXI) turn out when “recADAMTS13: recombinant ADAMTS13 in culture supernatant of transfected HEK 293 cells” was run?
A: stable complex
